Laboratory results reported in patent publication US20240409645A1 (DUALYX, published 2024).
Residue numbers refer to the chain shown, from its start.

B1: FJ1427_P035MP05E08 (VHH)
VHH: EVQLVESGGGSVQAGGSLRLSCEASGPTLFSSYGMGWFRQAPGKKEREFVGAISRYGTYTSYADPVKDRFTISRDNAKSTVYLQMNNTKPEDTAVYYCAAYTYSGSFYSTVKTHHDEYHYWGQGTQVTVSS
notes: periplasmic extract; also called clone nr
B2: FJ1427_P035MP05D11 (VHH)
VHH: B1 VHH with E1Q, F70L, D75G
notes: as for B1
B3: FJ1427_P035MP05B07 (VHH)
VHH: QLQLVESGGGLVQAGGSLRLSCAASGLTFDGYAIGWFRQASGKEREGVSYINGRDGSTFYADSVKGRFIISSDNAKNTVDLQMNSLKPDDAAVYYCAVDRLGSRGAYVSSWWRSPDMDLWGKGTLVTVSS
notes: as for B1
B4: FJ1427_P035MP01F07 (VHH)
VHH: QVQLVESGGGLVQAGGSLRLSCAATGLTFRQHNMGWFRRAPGKEREFVAAISWNVGSTYFADSVKGRFTISRDNGKNMVYLQMNSLKPEDTAVYYCAADNIPLASDMRATATAYGYWGQGTQVTVSS
notes: periplasmic extract; also called clone nr; 54
B5: FJ1427_P035MP01E10 (VHH)
VHH: QVQLVESGGGLVQAGDSLRLSCAASGRSFRNYILAWYRQAPGKEREFLAAISWLDGTLYADSVEDRFTISRDNPKNTVHLQMDSLKPEDTAVYYCAADRGPVRPVLAPDVDYWGQGTQVTVSS
notes: periplasmic extract; also called clone nr; 77
B6: FJ1427_P035MP01E04 (VHH)
VHH: B5 VHH with A24V, L58F, D61N, D65G, S84G, S122A
notes: periplasmic extract; also called clone nr; 29
B7: FJ1427_P035MP01F11 (VHH)
VHH: B5 VHH with V5Q
notes: periplasmic extract; also called clone nr; 86
B8: FJ1427_P035MP01E07 (VHH)
VHH: B5 VHH with V5Q, D55E
notes: periplasmic extract; also called clone nr; 53
B9: FJ1427_P035MP01D11 (VHH)
VHH: B5 VHH with V2L, L34M
notes: periplasmic extract; also called clone nr; 84
B10: FJ1427_P035MP01A01 (VHH)
VHH: B5 VHH with Q1E, S84N, T120S
notes: as for B1
B11: FJ1427_P035MP01B12 (VHH)
VHH: B5 VHH with V5Q, L58F, D61N, D65G, S84G, S122A
notes: periplasmic extract; also called clone nr; 90
B12: FJ1427_P035MP01E02 (VHH)
VHH: B5 VHH with S84N
notes: periplasmic extract; also called clone nr; 13
B13: FJ1427_P035MP01G07 (VHH)
VHH: B5 VHH with A14T, D65G
notes: periplasmic extract; also called clone nr; 55
B14: FJ1427_P035MP01F08 (VHH)
VHH: EVQLVESGGGWVQPGDSLRLSCAASGRSFRNYVMGWFRQVPGKEREFLSVITSLGGTLDADSVADRFTISRDNSKNTVYLQMDSLKPEDTAVYYCAADRGPARYISASDVDYWGQGTQVTVSS
notes: periplasmic extract; also called clone nr; 62
B15: FJ1427_P035MP01B01 (VHH)
VHH: B14 VHH with P14A, S28T, L58V, D59Y, D65N, S74P, N76D, V121A
notes: as for B1
B16: FJ1427_P035MP01D04 (VHH)
VHH: B14 VHH with E1Q, S53W
notes: periplasmic extract; also called clone nr; 28
B17: FJ1427_P035MP04F12 (VHH)
VHH: QVQLQESGGGWVQVGESLRLSCVPSGRTFVSGIMGWFRQAPGKEREFVARIILNNNSTRYTDSVKGRFTISRDSAKNTMYLQMNTLRPEDTAVYYCAARDRYGSGNSLSPSAYDYWGQGTQVTVSS
notes: tested as periplasmic extract; also called Clone nr
B18: FJ1427_P035MP07C02 (VHH)
VHH: B17 VHH with Q1E, Q5V, V23A, A40T
notes: tested as periplasmic extract; also called Clone nr; 587
B19: FJ1427_P035MP05E11 (VHH)
VHH: EVQLVESGGGSVQAGGSLRLSCAASGRTLYSSYGMAWFRQAPGKERDFVGSISRYGTYTSYADSVKDRFTISRDNAKSTVYLQMNNTKPEDTAVYYCAAYTYSGSFYSTVKTHRDEYQYWGQGTQVTVSS
notes: as for B1
B20: FJ1427_P035MP05C04 (VHH)
VHH: B19 VHH with A23E, Y30F, A36G, D47E, S51A, Y55F, S64P, R114H, Q118R
notes: periplasmic extract; also called clone nr; 411
B21: FJ1427_P035MP05A07 (VHH)
VHH: B19 VHH with E1Q, S11L, V12A, G16A, D67G
notes: as for B1
B22: FJ1427_P035MP05E03 (VHH)
VHH: B19 VHH with S11L
notes: as for B1
B23: FJ1427_P035MP05C07 (VHH)
VHH: B19 VHH with E1Q, A23E, Y30F, A36G, D47E, S51A, Y55F, S64P, R114H, Q118R
notes: periplasmic extract; also called 92-MP05C07
B24: FJ1427_P035MP01E12 (VHH)
VHH: QVQLVESGGGLVQAGGSLRLSCAASGITFNDHTMAWFRQAPGKEREFVAARDWSDIITRYASSVKGRFTISRDNAGNTGFLQMNSLRPEDTAVYYCAAREGGVVAGVRSGAPYDYWGQGTQVTVSS
notes: periplasmic extract; also called clone nr; 93
B25: FJ1427_P035MP05H01 (VHH)
VHH: B24 VHH with Q1E
notes: as for B1
B26: FJ1427_P035MP01G11 (VHH)
VHH: B24 VHH with Q118R
notes: periplasmic extract; also called clone nr; 87
B27: FJ1427_P035MP01F12 (VHH)
VHH: B24 VHH with Q1E, R19G, S126P
notes: periplasmic extract; also called clone nr; 94
B28: FJ1427_P035MP05H02 (VHH)
VHH: B24 VHH with Q1E, S62G
notes: periplasmic extract; also called clone nr; 400
B29: FJ1427_P035MP05B03 (VHH)
VHH: B24 VHH with V5Q, A14P
notes: as for B1
B30: FJ1427_P035MP07A01 (VHH)
VHH: EVQLVESGGGLVQAGDSLRLSCAASGRTLSRYAMGWFRQAPGKEREFVTANSWGGDTYYADSVQGRFTFSRDNAKNTVYLQMNSLQPEDTAVYYCAAAPTSFATTAYSSSNSYAYWGQGTQVTVSS
notes: as for B17
B31: FJ1427_P035MP01F02 (VHH)
VHH: QVQLQESGGGLVQAGGSLRLSCAASGRTFRTHNMGWFRRAPGKEREFVAAISWNIDNKLYADSVKGRSTISRDNGGNMVFLQMNSLKPEDTAVYYCAADKIPLSSDVAATATEYDDWGQGTQVTVSS
notes: periplasmic extract; also called clone nr; 14
B32: FJ1427_P035MP01F06 (VHH)
VHH: QLQLVESGGGLVQAGGSLRLSCAASGGAFSRYAVGWFRMAPGKGREFVSAIDLSGTNTHVLDSVKGRFTISRDNDKNTAYLQMDKLQPEDTAVYWCAATSSSYSDYEANYNIWGQGTQVTVSS
notes: periplasmic extract; also called clone nr; 46
B33: FJ1427_P035MP01G10 (VHH)
VHH: B32 VHH with Q1E, L2V
notes: periplasmic extract; also called clone nr; 79
B34: FJ1427_P035MP01H02 (VHH)
VHH: B32 VHH with G16D, G27R, D52N, L53S, T56A, H59Y, K85S, D105T, I112V
notes: periplasmic extract; also called clone nr; 16

Legend:
[1] = target: T1, human IL-2Rα (human, UniProt P01589 22-240, limits assumed); assay: ELISA, P.E. on coated antigen
T1 construct: recombinant protein; also called hu IL-2R; human IL-2Ra
T1 sequence: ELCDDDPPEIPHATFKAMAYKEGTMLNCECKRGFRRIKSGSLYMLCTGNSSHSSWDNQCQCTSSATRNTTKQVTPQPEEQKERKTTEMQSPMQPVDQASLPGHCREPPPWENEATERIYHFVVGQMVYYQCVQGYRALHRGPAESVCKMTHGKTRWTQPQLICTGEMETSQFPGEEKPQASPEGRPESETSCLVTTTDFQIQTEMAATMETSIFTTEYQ
Description: (§1) In a binding ELISA, human or mouse IL-2Rα, IL-2Rβ and IL-2Rγ proteins were coated directly on maxisorp microtiter plates overnight at 4° C. Free binding sites were blocked using 4% Marvel in PBS for 1 hour. Next, 1:5 dilution of P.E. in 1% Marvel/PBS were added to wells and incubated for 1 hour. […] Binding specificity was determined based on O.D. at 450 nm values compared to negative controls.

[2] = target: T1, human IL-2Rα; assay: SPR, P.E. on immobilised antigen
Description: (§2) SPR was performed to determine dissociation rates using Biacore 3000 instrument (GE Healthcare). Briefly, human and mouse IL-2R proteins were immobilized on carboxylmethyl dextran sensor chip (CM5) at approximately 2500 RUs using amine coupling in acetate buffer (GE Healthcare). The VHH-containing P.E. were loaded with a flow rate of 30 uL/min and the off-rates were measured over a 120s period.

[3] = target: T2, human common cytokine receptor γ-chain (IL-2Rγ) (human, UniProt P31785 23-262, limits assumed); assay: P.E. off-rate SPR
T2 construct: Recombinant human IL-2Rγ protein, coated (ELISA) or amine-coupled to a CM5 chip (SPR); also called hu IL-2R; CD132
T2 sequence: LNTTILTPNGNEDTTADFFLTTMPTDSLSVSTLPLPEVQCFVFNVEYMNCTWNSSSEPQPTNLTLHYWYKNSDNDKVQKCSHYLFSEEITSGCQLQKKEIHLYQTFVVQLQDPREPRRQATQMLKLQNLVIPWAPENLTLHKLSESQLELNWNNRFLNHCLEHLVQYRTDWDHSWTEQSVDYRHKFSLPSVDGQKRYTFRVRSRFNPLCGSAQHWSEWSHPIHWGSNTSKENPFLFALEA
Description: as §2

[4] = target: T2, human common cytokine receptor γ-chain …; assay: P.E. binding ELISA
Description: as §1

Binder | OD (PE binding ELISA) [1] [OD450 nm] | koff [2] [s⁻¹] | koff [3] [s⁻¹] | PE binding ELISA OD [4] [OD450 nm]
B1 | 2.33 | 0.000214 |  | 
B2 | 2.54 | 0.000662 |  | 
B3 | 1.77 | 0.00195 |  | 
B4 | 2.76 | 0.00067 |  | 
B5 | 2.78 | 0.00119 |  | 
B6 | 2.61 | 0.00235 |  | 
B7 | 2.74 | 0.00118 |  | 
B8 | 2.73 | 0.00159 |  | 
B9 | 3.21 | 0.0027 |  | 
B10 | 2.85 | 0.00112 |  | 
B11 | 3.05 | 0.00144 |  | 
B12 | 2.86 | 0.00128 |  | 
B13 | 2.75 | 0.0015 |  | 
B14 | 2.71 | 0.00162 |  | 
B15 | 2.78 | 0.00178 |  | 
B16 | 2.76 | 0.00295 |  | 
B17 |  |  | 0.00714 | 2.02

Binder | OD (PE binding ELISA) [1] [OD450 nm] | koff [2] [s⁻¹] | koff [3] [s⁻¹] | PE binding ELISA OD [4] [OD450 nm]
B18 |  |  | 0.0186 | 0.48
B19 | 2.35 | 0.001 |  | 
B20 | 1.83 | 0.000905 |  | 
B21 | 2.43 | 0.00104 |  | 
B22 | 2.48 | 0.000772 |  | 
B23 | 1.73 | 0.00141 |  | 
B24 | 2.69 | 0.000141 |  | 
B25 | 2.62 | 0.000141 |  | 
B26 | 2.73 | 0.000123 |  | 
B27 | 2.67 | 0.00011 |  | 
B28 | 2.29 | 0.000141 |  | 
B29 | 2.42 | 0.000131 |  | 
B30 |  |  | 0.00151 | 0.478
B31 | 2.5 | 0.00391 |  | 
B32 | 2.71 | 0.000526 |  | 
B33 | 2.75 | 0.000443 |  | 
B34 | 2.35 | 0.00115 |  | 
